# Laboratory results reported in patent US20240343810A1 (published 2024).
# T1: human ICOS-mFc (Chimerigen) (human, UniProt Q9Y6W8 21-140)
# T1 construct: Bought; also called recombinant human ICOS protein; hICOS; not shown: mouse Fc of the bought fusion
# T1 sequence: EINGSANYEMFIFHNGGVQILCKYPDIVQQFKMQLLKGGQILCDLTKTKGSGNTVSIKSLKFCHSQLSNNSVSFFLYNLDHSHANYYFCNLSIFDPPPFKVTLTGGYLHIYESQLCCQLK
# T2: human ICOS expressed on cells (human, UniProt Q9Y6W8 21-199)
# T2 construct: also called CHO-S cells transfected with human ICOS; hICOS
# T2 sequence: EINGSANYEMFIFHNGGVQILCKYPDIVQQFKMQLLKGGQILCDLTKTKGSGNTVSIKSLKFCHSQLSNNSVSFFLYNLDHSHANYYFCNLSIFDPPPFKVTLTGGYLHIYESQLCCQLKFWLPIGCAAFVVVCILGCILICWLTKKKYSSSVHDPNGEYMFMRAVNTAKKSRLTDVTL
# T3: Biotinylated human ICOS protein (human, UniProt Q9Y6W8 21-140, limits assumed, biotinylated (sites not given))
# T3 construct: Captured on the NLC chip in the avidity SPR
# T3 sequence: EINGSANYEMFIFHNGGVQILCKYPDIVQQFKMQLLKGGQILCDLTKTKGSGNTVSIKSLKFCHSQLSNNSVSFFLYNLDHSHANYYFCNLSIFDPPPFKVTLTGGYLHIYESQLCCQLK
# What was measured:
# [1] = target: FcγRIIIa on effector cells (Jurkat NFAT luciferase v-variant effector cells, Promega) (human, UniProt P08637 17-254); assay: cell-based or functional assay
# Sequence of FcγRIIIa on effector cells (Jurkat NFAT luciferase v-variant effector cells, Promega) (P08637 other isoform, or with tags, fused parts or gaps mutant limits assumed): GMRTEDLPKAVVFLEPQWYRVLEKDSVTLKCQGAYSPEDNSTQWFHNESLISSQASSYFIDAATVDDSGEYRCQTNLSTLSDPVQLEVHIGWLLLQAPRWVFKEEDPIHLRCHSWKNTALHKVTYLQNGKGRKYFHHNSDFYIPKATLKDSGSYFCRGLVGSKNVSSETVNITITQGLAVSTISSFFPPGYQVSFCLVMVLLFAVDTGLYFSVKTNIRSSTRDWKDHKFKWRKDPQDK
# [2] = target: T1, human ICOS-mFc (Chimerigen); assay: DELFIA ELISA on coated human ICOS-mFc, N=1
# Method: Recombinant ICOS proteins, human ICOS-mFc or mouse ICOS-mFc (Chimerigen) were diluted in 1×PBS and added to Black Hi-bind plates (Griener) at 1 μg/ml, 50 μl/well. Recombinant PD-L1 proteins, human PD-L1-Flag-His or mouse-His were diluted in 1×PBS and added to Black Hi-bind plates (Griener) at 4 μg/ml, 50 μl/well. The plates were left overnight at 4° C. The next day plates were washed 3× with 300 μl/well of 1×PBS+0.1% Tween and blocked with 200 ul/well of 1×PBS+1% BSA blocking buffer for 1 hr at RT on a plate shaker. Plates were washed 3× with 300 μl/well of 1×PBS+0.1% Tween.
# However, human-PD-L1 mAb² antibodies were diluted in 1×PBS+0.1% BSA buffer and diluted 1 in 2 from a starting working concentration of 0.066 μM over an 11 point titration. Titrated antibodies were added to the plates, 50 μl/well and left to incubate for 1 hr at R.T on a plate shaker. Plates were washed 3× with 300 μl/well of 1×PBS+0.1% Tween.
# DELFIA® Eu-labelled Anti-human IgG (Perkin-Elmer) was diluted 1:500 in DELFIA Assay buffer (Perkin-Elmer) and added to the assay plate (50 μl/well), left to incubate for 1 hr at RT on a plate shaker. […] After incubation, assay was read on Envision plate reader (Perkin Elmer), Time-resolved fluorescence (TRF) was measured at 615 nm.
# [3] = target: T2, human ICOS expressed on cells; assay: Flow cytometry on CHO-S human ICOS cells, anti-human IgG AF647, N=1
# Method: CHO—S cells transfected with either human ICOS or mouse ICOS were resuspended in FACS buffer (PBS+1% w/v BSA+0.1% w/v sodium azide) and transferred to a 96-well V-bottom plate (Greiner) at a density of 1×10⁵ cells per well. mAb and mAb² were titrated in FACS buffer, 1 in 3 dilution across 11 points from a starting working concentration of 400 nM. Plates were centrifuged at 300×g for 3 minutes, supernatant discarded and 50 μL mAb or mAb² solution were added to cells and incubated at 4° C. for 1 hour. Cells were washed with 150 μL of PBS and centrifuged at 300×g for 3 minutes, supernatant was discarded and cell pellet resuspended in 150 μL PBS added. This wash step was repeated twice. Bound mAb or mAb² was detected by addition of 50 μL of anti-human 647 (Jackson ImmunoResearch) diluted to 3 ug/ml in FACS buffer. Cells were incubated for 1 hour at 4° C. in the dark. Cells were washed with 150 μL of PBS and centrifuged at 300 g for 3 minutes, supernatant was discarded and cell pellet resuspended in 150 μL PBS added. This wash step was repeated twice. Cells were fixed with 25 μL 4% v/v paraformaldehyde, incubated for 20 minutes at 4° C., cells were pelleted by centrifugation at 300×g and the supernatant discarded. […] AlexaFluor 647 signal intensity (geometric mean) was measured by flow cytometry using a Beckman Coulter CytoFLEX instrument.
# [4] = target: T4, mouse PD-L1 expressed on CHO cells (mouse, UniProt Q9EP73 19-290); assay: Flow cytometry on CHO mouse PD-L1 cells (sentence prints 'human PD-L1')
# T4 construct: also called CHO-S cells transfected with mPD-L1; CHO mouse PD-L1
# T4 sequence (Q9EP73 19-290 limits assumed): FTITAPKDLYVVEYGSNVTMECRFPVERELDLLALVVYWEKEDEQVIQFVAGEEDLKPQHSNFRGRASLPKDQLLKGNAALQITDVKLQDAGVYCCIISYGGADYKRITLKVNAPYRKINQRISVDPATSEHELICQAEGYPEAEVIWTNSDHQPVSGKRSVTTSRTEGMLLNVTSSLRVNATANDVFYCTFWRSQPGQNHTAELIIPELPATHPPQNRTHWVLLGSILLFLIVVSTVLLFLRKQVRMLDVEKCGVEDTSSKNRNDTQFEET
# [5] = target: T1, human ICOS-mFc (Chimerigen); assay: HTRF, human ICOS-mFc, competitor human B7-H2-Alexa 647, n3
# Method: 5 μl of human ICOS-mFc (Chimerigen) at 20 nM (5 nM final) or 5 ul of mouse ICOS-mFc (Chimerigen) at 4 nM (1 nM final) were added to relevant assay wells. Plate was incubated for 1 hour (hr) at room temperature (RT).
# After incubation, assay was read on Envision plate reader (Perkin Elmer) using a standard HTRF protocol. 620 nm and 665 nm channel values were exported to Microsoft Excel and % Delta-F and % Neutralisation calculations performed. Titration curves and IC50 values [M] were plotted using Graphpad (Prism). IC50 values were calculated by first transforming the data using equation X=Log(X). The transformed data was then fitted using nonlinear regression, using fitting algorithm, log (inhibitor) vs. response—variable slope (four parameters).
# [6] = target: T3, Biotinylated human ICOS protein; assay: SPR ProteOn avidity format, biotinylated human ICOS on NLC chip; calculated on-rate
# Method: Biotinylated human ICOS protein diluted at 7.5 μg/mL in running buffer (1× HBS-EP+ Buffer Technova, cat. No. H8022) was captured on a NLC sensor chip (Bio-Rad, cat No 1765021). The surface was then blocked using biocytin (Sigma Aldrich, cat No B1758) at 1 mg/mL.
# The assay was carried out at 25° C.
# The buffer injection (i.e. 0 nM) was used to double reference the sensorgrams. […]
Binder,"EC50 of luciferase fold of induction, CHO human ICOS target cells, N=1 [1] [nM]","EC50 of luciferase fold of induction, CHO human ICOS target cells, N=2 [1] [nM]","EC50 of luciferase fold of induction, CHO human ICOS target cells, N=3 [1] [nM]","EC50 of luciferase fold of induction, CHO human ICOS target cells, mean [1] [nM]","EC50 of luciferase fold of induction, CHO mouse ICOS target cells, N=1 [1] [nM]","EC50 of luciferase fold of induction, CHO mouse ICOS target cells, N=2 [1] [nM]","EC50 of luciferase fold of induction, CHO mouse ICOS target cells, N=3 [1] [nM]","EC50 of luciferase fold of induction, CHO mouse ICOS target cells, mean [1] [nM]",EC50 [2] [nM],EC50 [3] [nM],binding result [4],IC50 [5] [nM],kon [6] [M⁻¹ s⁻¹]
"STIM003 (antibody, human IgG1, kappa, Anti-ICOS monospecific antibody, tested as human IgG1; also called STIM003 monoclonal IgG1 antibody) heavy: not shown light: EIVLTQSPGTLSLSPGERATLSCRASQSVSRSYLAWYQQKRGQAPRLLIYGASSRATGIPDRFSGDGSGTDFTLSISRLEPEDFAVYYCHQYDMSPFTFGPGTKVDIKRTVAAPSVFIFPPSDEQLKSGTASVVCLLNNFYPREAKVQWKVDNALQSGNSQESVTEQDSKDSTYSLSSTLTLSKADYEKHKVYACEVTHQGLSSPVTKSFNRGEC",0.326,0.477,0.24,0.347,0.508,0.754,0.703,0.655,0.488,7.22,no binding (tested: 22 nM),0.71,267000
"STIM001 (antibody, human IgG1, kappa, Anti-ICOS monospecific antibody, tested as human IgG1; also called STIM001 monoclonal IgG1 antibody) heavy: not shown light: DIVMTQSPLSLPVTPGEPASISCRSSQSLLHSNEYNYLDWYLQKPGQSPQLLIFLGSNRASGVPDRFSGSGSGTDFTLKITRVEAEDVGIYYCMQSLQTPLTFGGGTKVEIKRTVAAPSVFIFPPSDEQLKSGTASVVCLLNNFYPREAKVQWKVDNALQSGNSQESVTEQDSKDSTYSLSSTLTLSKADYEKHKVYACEVTHQGLSSPVTKSFNRGEC",0.456,0.247,0.147,0.283,0.479,0.534,0.579,0.53,20,30.1,no binding (tested: 22 nM),2.33,7990
